Data set [1] concerns HeLa Kyoto. The experiment in a line: thermal stability score vs G1/S (z-score of summed log2 fold changes over temperatures); higher = more thermally stable than in G1/S.
Data set [2] deals with HeLa Kyoto. The experiment in a line: solubility change mitosis vs G1/S (difference of NP-40 vs SDS log2 ratios) (log2 ratio difference); higher = more soluble in mitosis.
Data set [3] has as its system HeLa Kyoto. The experiment in a line: melting temperature (median over replicates), in situ; higher = more thermally stable.
Data set [4] deals with HeLa Kyoto. The experiment in a line: solubility in G1/S (NP-40 vs SDS abundance) (log2 ratio); higher = more soluble. The note with it: cell cycle stage: G1/S.
Setting [5] is: cell cycle stage: early G1 (4.5 h after nocodazole release).
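Wherever melting temperature (median over replicates), in situ is given: HeLa Kyoto cells synchronized by double thymidine or nocodazole block, proteins quantified by TMT10plex mass spectrometry, three independent biological replicates.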
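Wherever solubility change mitosis vs G1/S (difference of NP-40 vs SDS log2 ratios) is given: synchronized HeLa Kyoto cells (double thymidine block for G1/S, nocodazole release for mitosis), protein amounts in NP-40 versus SDS lysates quantified by mass spectrometry, three biological replicates.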
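Wherever solubility in G1/S (NP-40 vs SDS abundance) is given: HeLa Kyoto cells arrested at G1/S by double thymidine block, proteins quantified by TMT10plex mass spectrometry in mild NP-40 versus SDS extracts, three biological replicates.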
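Wherever thermal stability score vs G1/S (z-score of summed log2 fold changes over temperatures) is given: synchronized HeLa Kyoto cells, proteins quantified by TMT10plex mass spectrometry, three biological replicates, mitosis taken 0.5 h after nocodazole release, G1/S directly after double thymidine block.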

With “MAAEQDPEARAAARPLLTDLYQATMALGYWRAGRARDAAEFELFFRRCPFGGAFALAAGLRDCVRFLRAFRLRDADVQFLASVLPPDTDPAFFEHLRALDCSEVTVRALPEGSLAFPGVPLLQVSGPLLVVQLLETPLLCLVSYASLVATNAARLRLIAGPEKRLLEMGLRRAQGPDGGLTASTYSYLGGFDSSSNVLAGQLRGVPVAGTLAHSFVTSFSGSEVPPDPMLAPAAGEGPGVDLAAKAQVWLEQVCAHLGLGVQEPHPGERAAFVAYALAFPRAFQGLLDTYSVWRSGLPNFLAVALALGELGYRAVGVRLDSGDLLQQAQEIRKVFRAAAAQFQVPWLESVLIVVSNNIDEEALARLAQEGSEVNVIGIGTSVVTCPQQPSLGGVYKLVAVGGQPRMKLTEDPEKQTLPGSKAAFRLLGSDGSPLMDMLQLAEEPVPQAGQELRVWPPGAQEPCTVRPAQVEPLLRLCLQQGQLCEPLPSLAESRALAQLSLSRLSPEHRRLRSPAQYQVVLSERLQALVNSLCAGQSP [NAPRT]”, the thermal stability score in data set [1] (setting [5]) is 0.14; in data set [1] (cell cycle stage: mitosis) it was -1.8. Also, the “solubility change mitosis (log2)” value in data set [2] is -0.0823. Further, the results for the melting temperature in data set [3] (cell cycle stage: G1/S) and in data set [3] (cell cycle stage: mitosis) were 56.9 °C and 56.7 °C, respectively. In data set [4], the “solubility in G1/S (log2)” value came to 0.352.
Turning to “MAAFSEMGVMPEIAQAVEEMDWLLPTDIQAESIPLILGGGDVLMAAETGSGKTGAFSIPVIQIVYETLKDQQEGKKGKTTIKTGASVLNKWQMNPYDRGSAFAIGSDGLCCQSREVKEWHGCRATKGLMKGKHYYEVSCHDQGLCRVGWSTMQASLDLGTDKFGFGFGGTGKKSHNKQFDNYGEEFTMHDTIGCYLDIDKGHVKFSKNGKDLGLAFEIPPHMKNQALFPACVLKNAELKFNFGEEEFKFPPKDGFVALSKAPDGYIVKSQHSGNAQVTQTKFLPNAPKALIVEPSRELAEQTLNNIKQFKKYIDNPKLRELLIIGGVAARDQLSVLENGVDIVVGTPGRLDDLVSTGKLNLSQVRFLVLDEADGLLSQGYSDFINRMHNQIPQVTSDGKRLQVIVCSATLHSFDVKKLSEKIMHFPTWVDLKGEDSVPDTVHHVVVPVNPKTDRLWERLGKSHIRTDDVHAKDNTRPGANSPEMWSEAIKILKGEYAVRAIKEHKMDQAIIFCRTKIDCDNLEQYFIQQGGGPDKKGHQFSCVCLHGDRKPHERKQNLERFKKGDVRFLICTDVAARGIDIHGVPYVINVTLPDEKQNYVHRIGRVGRAERMGLAISLVATEKEKVWYHVCSSRGKGCYNTRLKEDGGCTIWYNEMQLLSEIEEHLNCTISQVEPDIKVPVDEFDGKVTYGQKRAAGGGSYKGHVDILAPTVQELAALEKEAQTSFLHLGYLPNQLFRTF [DDX1]”, the values for the thermal stability score in data set [1] (setting [5]) and in data set [1] (cell cycle stage: mitosis) were 0.00991 and 0.413, respectively. Besides, the “solubility change mitosis (log2)” value in data set [2] turned out to be 0.00283. For the same sequence, the figures for the melting temperature in data set [3] (cell cycle stage: G1/S) and in data set [3] (cell cycle stage: mitosis) were 50.7 °C and 50.9 °C, respectively. In addition, in data set [4], the “solubility in G1/S (log2)” value is -0.286.
With “MAAGDGDVKLGTLGSGSESSNDGGSESPGDAGAAAEGGGWAAAALALLTGGGEMLLNVALVALVLLGAYRLWVRWGRRGLGAGAGAGEESPATSLPRMKKRDFSLEQLRQYDGSRNPRILLAVNGKVFDVTKGSKFYGPAGPYGIFAGRDASRGLATFCLDKDALRDEYDDLSDLNAVQMESVREWEMQFKEKYDYVGRLLKPGEEPSEYTDEEDTKDHNKQD [PGRMC2]”, the thermal stability score is -0.577 in data set [1] (setting [5]) and 0.992 in data set [1] (cell cycle stage: mitosis). Also, the “solubility change mitosis (log2)” value in data set [2] was -0.00423. The melting temperature in data set [3] (cell cycle stage: G1/S) amounted to 52.3 °C; in data set [3] (cell cycle stage: mitosis), 53.9 °C. Moreover, the “solubility in G1/S (log2)” value in data set [4] came out at 0.236.
“MAAGGDHGSPDSYRSPLASRYASPEMCFVFSDRYKFRTWRQLWLWLAEAEQTLGLPITDEQIQEMKSNLENIDFKMAAEEEKRLRHDVMAHVHTFGHCCPKAAGIIHLGATSCYVGDNTDLIILRNALDLLLPKLARVISRLADFAKERASLPTLGFTHFQPAQLTTVGKRCCLWIQDLCMDLQNLKRVRDDLRFRGVKGTTGTQASFLQLFEGDDHKVEQLDKMVTEKAGFKRAFIITGQTYTRKVDIEVLSVLASLGASVHKICTDIRLLANLKEMEEPFEKQQIGSSAMPYKRNPMRSERCCSLARHLMTLVMDPLQTASVQWFERTLDDSANRRICLAEAFLTADTILNTLQNISEGLVVYPKVIERRIRQELPFMATENIIMAMVKAGGSRQDCHEKIRVLSQQAASVVKQEGGDNDLIERIQVDAYFSPIHSQLDHLLDPSSFTGRASQQVQRFLEEEVYPLLKPYESVMKVKAELCL [ADSL]”: the results for the thermal stability score in data set [1] (setting [5]) and in data set [1] (cell cycle stage: mitosis) were -1.75 and -1.49, respectively. Also, the “solubility change mitosis (log2)” value in data set [2] is -0.138. The melting temperature in data set [3] (cell cycle stage: G1/S) stood at 57.2 °C; in data set [3] (cell cycle stage: mitosis), 57.8 °C. Also, in data set [4], the “solubility in G1/S (log2)” value was found to be 0.108.
On to “MAAGPISERNQDATVYVGGLDEKVSEPLLWELFLQAGPVVNTHMPKDRVTGQHQGYGFVEFLSEEDADYAIKIMNMIKLYGKPIRVNKASAHNKNLDVGANIFIGNLDPEIDEKLLYDTFSAFGVILQTPKIMRDPDTGNSKGYAFINFASFDASDAAIEAMNGQYLCNRPITVSYAFKKDSKGERHGSAAERLLAAQNPLSQADRPHQLFADAPPPPSAPNPVVSSLGSGLPPPGMPPPGSFPPPVPPPGALPPGIPPAMPPPPMPPGAAGHGPPSAGTPGAGHPGHGHSHPHPFPPGGMPHPGMSQMQLAHHGPHGLGHPHAGPPGSGGQPPPRPPPGMPHPGPPPMGMPPRGPPFGSPMGHPGPMPPHGMRGPPPLMPPHGYTGPPRPPPYGYQRGPLPPPRPTPRPPVPPRGPLRGPLPQ [SF3B4]”, for which the thermal stability score in data set [1] (setting [5]) is -2.15; in data set [1] (cell cycle stage: mitosis), -2.49. In data set [2], the “solubility change mitosis (log2)” value turned out to be 0.162. In addition, the melting temperature in data set [3] (cell cycle stage: G1/S) stood at 50.9 °C; in data set [3] (cell cycle stage: mitosis), 51.3 °C. The “solubility in G1/S (log2)” value in data set [4] was found to be 0.275.
In the case of “MAAGVEAAAEVAATEIKMEEESGAPGVPSGNGAPGPKGEGERPAQNEKRKEKNIKRGGNRFEPYANPTKRYRAFITNIPFDVKWQSLKDLVKEKVGEVTYVELLMDAEGKSRGCAVVEFKMEESMKKAAEVLNKHSLSGRPLKVKEDPDGEHARRAMQKVMATTGGMGMGPGGPGMITIPPSILNNPNIPNEIIHALQAGRLGSTVFVANLDYKVGWKKLKEVFSMAGVVVRADILEDKDGKSRGIGTVTFEQSIEAVQAISMFNGQLLFDRPMHVKMDERALPKGDFFPPERPQQLPHGLGGIGMGLGPGGQPIDANHLNKGIGMGNIGPAGMGMEGIGFGINKMGGMEGPFGGGMENMGRFGSGMNMGRINEILSNALKRGEIIAKQGGGGGGGSVPGIERMGPGIDRLGGAGMERMGAGLGHGMDRVGSEIERMGLVMDRMGSVERMGSGIERMGPLGLDHMASSIERMGQTMERIGSGVERMGAGMGFGLERMAAPIDRVGQTIERMGSGVERMGPAIERMGLSMERMVPAGMGAGLERMGPVMDRMATGLERMGANNLERMGLERMGANSLERMGLERMGANSLERMGPAMGPALGAGIERMGLAMGGGGGASFDRAIEMERGNFGGSFAGSFGGAGGHAPGVARKACQIFVRNLPFDFTWKMLKDKFNECGHVLYADIKMENGKSKGCGVVKFESPEVAERACRMMNGMKLSGREIDVRIDRNA [HNRNPM]”, the thermal stability score in data set [1] (setting [5]) worked out at 6.88; in data set [1] (cell cycle stage: mitosis), 13.2. Further, in data set [2], the “solubility change mitosis (log2)” value is 0.236. For the same sequence, the melting temperature in data set [3] (cell cycle stage: G1/S) amounted to 46.7 °C; in data set [3] (cell cycle stage: mitosis), 47.3 °C. In addition, in data set [4], the “solubility in G1/S (log2)” value is -0.172.

Values taken from the supplement of paper PMC5998384.
